Reference: US10718784B2, “Mitochondrial preproteins as markers for Alzheimer's disease” (Albert-Ludwigs-Universität Freiburg, priority 2014, dated 2020)

Tests used:
Cym1 = target: T1, Cym1 (Saccharomyces cerevisiae, UniProt P32898); test: Peptide degradation assay in soluble mitochondrial extracts; format: biochemical, yeast
T1 construct: endogenous in cells; host or cells: soluble extract of wild-type S. cerevisiae mitochondria (cym1Δ extract as control)
T1 sequence (P32898 17-989): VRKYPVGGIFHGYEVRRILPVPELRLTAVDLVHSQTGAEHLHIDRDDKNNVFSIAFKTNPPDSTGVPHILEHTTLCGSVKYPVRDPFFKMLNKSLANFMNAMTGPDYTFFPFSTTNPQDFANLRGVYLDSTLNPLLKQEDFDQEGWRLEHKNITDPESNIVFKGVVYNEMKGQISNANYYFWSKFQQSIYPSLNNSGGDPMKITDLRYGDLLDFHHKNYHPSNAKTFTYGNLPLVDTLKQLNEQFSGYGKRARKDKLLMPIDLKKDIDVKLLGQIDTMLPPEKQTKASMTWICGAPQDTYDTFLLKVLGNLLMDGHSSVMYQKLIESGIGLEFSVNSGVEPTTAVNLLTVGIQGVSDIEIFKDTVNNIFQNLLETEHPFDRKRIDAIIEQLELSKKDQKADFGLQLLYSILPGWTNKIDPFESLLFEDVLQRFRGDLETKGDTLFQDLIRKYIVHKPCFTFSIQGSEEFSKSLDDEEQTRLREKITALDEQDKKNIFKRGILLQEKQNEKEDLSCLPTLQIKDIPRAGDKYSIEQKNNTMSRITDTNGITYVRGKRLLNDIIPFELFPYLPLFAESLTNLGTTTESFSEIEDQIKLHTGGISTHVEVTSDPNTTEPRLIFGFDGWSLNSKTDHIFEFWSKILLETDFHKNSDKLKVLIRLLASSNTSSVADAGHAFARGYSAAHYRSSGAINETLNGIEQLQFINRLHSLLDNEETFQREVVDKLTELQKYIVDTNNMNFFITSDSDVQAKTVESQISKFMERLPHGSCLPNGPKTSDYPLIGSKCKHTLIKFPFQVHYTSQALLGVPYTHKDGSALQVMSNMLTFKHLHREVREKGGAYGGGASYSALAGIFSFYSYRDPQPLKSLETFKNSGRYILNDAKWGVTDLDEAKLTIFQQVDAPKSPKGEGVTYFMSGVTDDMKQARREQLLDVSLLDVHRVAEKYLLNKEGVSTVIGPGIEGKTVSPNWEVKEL
Protocol: (§1) Isolated mitochondria from yeast strains grown under respiratory conditions were washed with SEM buffer, re-isolated and resuspended in reaction buffer (250 mM sucrose, 10 mM MOPS/KOH, pH 7.2, 80 mM KCl, 5 mM MgCl2, 5 mM KH2PO4) to a concentration of 3 μg/μl. Mitochondria were subjected to sonication (five times 30 s with 30 s breaks on ice, Sonifier250, Branson) followed by centrifugation at 100,000×g for 45 min at 4° C. The obtained supernatant was used for processing and degradation experiments. 0.5 μl of radiolabelled precursor protein and/or various peptides in different concentrations were added to 9 μl of yeast soluble mitochondrial extracts. Reactions were stopped by addition of 4× Laemmli buffer (8% (w/v) SDS, 0.08% (w/v) bromophenol blue, 40% (v/v) glycerol, 240 mM Tris/HCl, pH 6.8) containing 5% (v/v) β-mercaptoethanol and analyzed by SDS-PAGE followed by autoradiography and immunodecoration. Radiolabelled precursor proteins were synthesized with the transcription/translation rabbit reticulate lysate system (Promega) in the presence of ^35S-methionine. Chemical amounts of Cym1 and control protein (Oct1) were synthesized in vitro using the RTS wheat germ system (5 PRIME). 0.5 μl of cell-free translation product was used in the processing assays.

MPP = target: T2, MPP (Saccharomyces cerevisiae, UniProt P10507+P11914); test: In vitro processing of [35S]Sod2 precursor in yeast soluble mitochondrial extracts; format: biochemical
T2 construct: endogenous in cells; host or cells: soluble extract of mitochondria isolated from S. cerevisiae strains (wild-type, cym1Δ)
T2 sequence (P10507 21-462): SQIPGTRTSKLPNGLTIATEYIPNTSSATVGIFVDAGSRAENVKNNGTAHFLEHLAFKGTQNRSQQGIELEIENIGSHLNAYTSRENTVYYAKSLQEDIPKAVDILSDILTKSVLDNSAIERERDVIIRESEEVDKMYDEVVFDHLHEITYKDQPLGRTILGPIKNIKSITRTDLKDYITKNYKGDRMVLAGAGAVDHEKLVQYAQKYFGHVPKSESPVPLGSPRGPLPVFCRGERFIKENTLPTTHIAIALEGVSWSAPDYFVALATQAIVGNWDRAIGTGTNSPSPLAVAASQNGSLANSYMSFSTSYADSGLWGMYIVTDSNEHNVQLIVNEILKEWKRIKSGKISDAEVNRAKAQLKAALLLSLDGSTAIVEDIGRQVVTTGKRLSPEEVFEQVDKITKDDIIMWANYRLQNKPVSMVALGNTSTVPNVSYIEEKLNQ
T2 sequence (P11914 14-482): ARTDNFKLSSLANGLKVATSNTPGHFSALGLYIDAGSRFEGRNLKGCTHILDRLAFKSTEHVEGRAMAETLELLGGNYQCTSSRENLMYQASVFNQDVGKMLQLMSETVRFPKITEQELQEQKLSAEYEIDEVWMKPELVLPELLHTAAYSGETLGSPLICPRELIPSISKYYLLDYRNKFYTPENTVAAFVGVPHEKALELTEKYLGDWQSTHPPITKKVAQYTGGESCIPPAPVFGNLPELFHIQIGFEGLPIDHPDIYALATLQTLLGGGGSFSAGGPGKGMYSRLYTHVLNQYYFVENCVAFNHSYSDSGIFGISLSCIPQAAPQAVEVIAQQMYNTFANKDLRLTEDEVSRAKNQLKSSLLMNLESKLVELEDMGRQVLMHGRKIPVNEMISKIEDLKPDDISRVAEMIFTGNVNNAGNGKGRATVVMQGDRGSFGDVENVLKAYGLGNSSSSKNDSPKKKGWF
Protocol: as §1

Purified yeast MPP = target: T3, Purified yeast MPP (Saccharomyces cerevisiae, UniProt P10507+P11914); test: MPP activity assay: processing of [35S]F1β precursor by purified MPP; format: biochemical, S. cerevisiae; details: radiolabelled F1β precursor, increasing peptide concentrations
T3 construct: poly-histidine (N); made in house; host or cells: E. coli BL21, plasmid pVG18
Protocol: E. coli BL21 cells were transformed with plasmid pVG18 (32) that enables the transcription of a single mRNA encoding both β- (with N-terminal poly-histidine tag) and α-MPP subunits (Mas1 and Mas2) from S. cerevisiae. Cell cultures were grown in LB medium (10 g/l tryptone, 5 g/l yeast extract, 10 g/l NaCl) containing 100 μg/ml ampicillin at 37° C. to an OD600 of 0.6. Expression was induced by addition of 1 mM IPTG (Isopropyl β-D-1-thiogalactopyranoside, Formedium) for 4 h. Cells were harvested and snap-frozen in liquid nitrogen. Pellets were resuspended in binding buffer (20 mM Na3PO4, 200 mM NaCl, 20 mM imidazole, pH 7.4) containing 1 mg/ml lysozyme (Sigma) and 10 μg/ml DNaseI (Sigma) and incubated for 1 h at 4° C. for cell lysis. The cell extract was centrifuged at 4000×g to remove unbroken cells. The supernatant was further centrifuged at 100,000×g for 30 min at 4° C. The obtained supernatant was incubated with Ni-NTA resin (Qiagen) for 3 h at 4° C. The resin was washed four times with binding buffer. Bound proteins were eluted with Elution buffer (20 mM Na3PO4, 200 mM NaCl, 200 mM imidazole, pH 7.4). […]
Purified yeast MPP (0.15 μg protein) was incubated in processing buffer (10 mM HEPES/KOH, pH 7.4, 0.1 mM MnCl2, 1 mM DTT, 0.1 mg/ml BSA) for 15 min at 30° C. […] The samples were analyzed by SDS-PAGE followed by autoradiography. Bands were quantified using the Multi Gauge software (Fuji Film). […]

Oct1 = target: T4, Oct1 (Saccharomyces cerevisiae, UniProt P35999); test: In vitro processing of [35S]Cox4 precursor in yeast mitochondrial extract in the presence of octapeptides; format: biochemical; details: cym1Δ mitochondrial extract
T4 construct: endogenous in cells; host or cells: soluble extract of wild-type and cym1Δ S. cerevisiae mitochondria
T4 sequence (P35999 38-772): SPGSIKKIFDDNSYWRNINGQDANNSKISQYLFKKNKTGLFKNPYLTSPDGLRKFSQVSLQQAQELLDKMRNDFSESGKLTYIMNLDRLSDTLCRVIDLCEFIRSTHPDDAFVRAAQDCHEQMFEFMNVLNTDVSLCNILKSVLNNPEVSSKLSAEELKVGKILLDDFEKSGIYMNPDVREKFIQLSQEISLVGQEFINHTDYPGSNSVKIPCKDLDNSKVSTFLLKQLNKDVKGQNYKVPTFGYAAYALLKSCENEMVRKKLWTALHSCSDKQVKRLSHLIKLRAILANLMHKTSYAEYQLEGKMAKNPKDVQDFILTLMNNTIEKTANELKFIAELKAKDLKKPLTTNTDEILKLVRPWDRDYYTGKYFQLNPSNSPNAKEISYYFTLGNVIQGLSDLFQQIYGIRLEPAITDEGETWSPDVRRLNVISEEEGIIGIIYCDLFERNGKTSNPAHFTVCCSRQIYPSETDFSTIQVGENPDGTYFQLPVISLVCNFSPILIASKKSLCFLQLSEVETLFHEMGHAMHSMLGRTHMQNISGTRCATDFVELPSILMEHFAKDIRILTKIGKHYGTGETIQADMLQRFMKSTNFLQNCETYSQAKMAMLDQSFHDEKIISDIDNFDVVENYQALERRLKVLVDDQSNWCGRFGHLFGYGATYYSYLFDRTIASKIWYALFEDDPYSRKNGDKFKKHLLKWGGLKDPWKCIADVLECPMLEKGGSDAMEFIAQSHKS
Protocol: as §1

## Aβ^scrambled: scrambled Aβ peptide KVKGLIDGDHIGDLVYEFMDSNSAIFREGVGAGHVHVAQVEF (SEQ ID No.: 19)
Cym1; WT soluble mitochondrial extract, 10 μM Cox4 presequence peptide in each reaction
  Effect on Cox4 presequence peptide degradation: not

## Cox4^preseq.: typical presequence peptide MLSLRQSIRFFKPATRTLCSSRYLL (SEQ ID No.: 15)
Cym1; wild-type (WT) extract, peptide 10 μM
  Degradation of the peptide in wild-type mitochondrial extract: Rapid degradation
MPP; cym1Δ mitochondrial extract (absence of Cym1), 10 μM Cox4 presequence peptide
  In vitro processing of radiolabelled Sod2 precursor by MPP in the presence of presequence peptide: efficiently blocked
Purified yeast MPP
  Processing activity of purified MPP on F1β precursor in the presence of peptide: able to inhibit purified MPP

## octapeptides: octapeptide derived from the Oct1 substrate Sdh1, FTSSALVR (SEQ ID No.: 16), EZ Biolab
Purified yeast MPP
  Processing activity of purified MPP on F1β precursor in the presence of peptide: not affected
Oct1
  Oct1-dependent processing step of Cox4 precursor in the presence of octapeptides: specific impairment of the Oct1-dependent processing step

B1: cell-free translated Cym1 protein: yeast PreP homolog Cym1 synthesized in vitro using the RTS wheat germ system (protein)
chain: MLRFQRFASSYAQAQAVRKYPVGGIFHGYEVRRILPVPELRLTAVDLVHSQTGAEHLHIDRDDKNNVFSIAFKTNPPDSTGVPHILEHTTLCGSVKYPVRDPFFKMLNKSLANFMNAMTGPDYTFFPFSTTNPQDFANLRGVYLDSTLNPLLKQEDFDQEGWRLEHKNITDPESNIVFKGVVYNEMKGQISNANYYFWSKFQQSIYPSLNNSGGDPMKITDLRYGDLLDFHHKNYHPSNAKTFTYGNLPLVDTLKQLNEQFSGYGKRARKDKLLMPIDLKKDIDVKLLGQIDTMLPPEKQTKASMTWICGAPQDTYDTFLLKVLGNLLMDGHSSVMYQKLIESGIGLEFSVNSGVEPTTAVNLLTVGIQGVSDIEIFKDTVNNIFQNLLETEHPFDRKRIDAIIEQLELSKKDQKADFGLQLLYSILPGWTNKIDPFESLLFEDVLQRFRGDLETKGDTLFQDLIRKYIVHKPCFTFSIQGSEEFSKSLDDEEQTRLREKITALDEQDKKNIFKRGILLQEKQNEKEDLSCLPTLQIKDIPRAGDKYSIEQKNNTMSRITDTNGITYVRGKRLLNDIIPFELFPYLPLFAESLTNLGTTTESFSEIEDQIKLHTGGISTHVEVTSDPNTTEPRLIFGFDGWSLNSKTDHIFEFWSKILLETDFHKNSDKLKVLIRLLASSNTSSVADAGHAFARGYSAAHYRSSGAINETLNGIEQLQFINRLHSLLDNEETFQREVVDKLTELQKYIVDTNNMNFFITSDSDVQAKTVESQISKFMERLPHGSCLPNGPKTSDYPLIGSKCKHTLIKFPFQVHYTSQALLGVPYTHKDGSALQVMSNMLTFKHLHREVREKGGAYGGGASYSALAGIFSFYSYRDPQPLKSLETFKNSGRYILNDAKWGVTDLDEAKLTIFQQVDAPKSPKGEGVTYFMSGVTDDMKQARREQLLDVSLLDVHRVAEKYLLNKEGVSTVIGPGIEGKTVSPNWEVKEL
MPP; cym1Δ mitochondrial extract
  MPP processing activity (Sod2 precursor) after addition of Cym1 protein: could be restored
